Source: patent US9394352B2, “Immunogenic POTE peptides and methods of use” (The United States of America, as represented by the …, priority 2010, dated 2016)

What was measured:
HLA-A2 molecule = target: T1, HLA-A2 molecule (Homo sapiens, UniProt P04439, D140Y/D185E/D98H/E176V/E277Q/G131W/G231S/I119V/I121R/I166T/I218V/L300P/L318F/N151K/N90K/P208A/P217A/Q86G/Q94H/R138H/R169H/T345S); experiment: T2 binding assay (HLA-A2 up-regulation on TAP-deficient T2 cells); settings: for FI0.5: peptide concentration that increases HLA-A2.1 expression by 50% over no peptide
T1 construct: The T2 cell line is deficient for TAP1 and TAP2 transporter proteins and expresses low levels of HLA-A2; endogenous in cells; host or cells: T2 cell line (TAP1/TAP2-deficient)
Procedure: FIG. 1 is a graph showing binding affinity of POTE peptides to HLA-A2 molecules. Peptides were dissolved in DMSO in double-distilled water and different concentrations of peptides were added into the culture of TAP-deficient T2 cells. After overnight culture of the cells in medium supplemented with β2-microglobulin, cells were stained with anti-HLA-A2. HLA-A2 expression was quantified as fluorescence index (FI) according to the following formula: FI=[(mean fluorescence intensity with peptide−mean fluorescence intensity without peptide)/mean fluorescence intensity without peptide]. Background fluorescence without BB7.2 was subtracted for each individual value. To compare the different peptides, FI0.5 (the peptide concentration that increases HLA-A2.1 expression by 50% over no peptide control background) was calculated from the titration curve for each peptide.
FIGS. 2A-2C are graphs showing binding affinity of substituted POTE peptides to HLA-A2 molecules. Shown are binding affinities of the substituted POTE 252 peptides (FIG. 2A), the substituted POTE 553 peptides (FIG. 2B) and the substituted POTE 323 peptides (FIG. 2C) to HLA-A2 molecules. Different concentrations of peptides were added into the culture of TAP-deficient T2 cells. After overnight culture of the cells in medium supplemented with β2-microglobulin, cells were stained with anti-HLA-A2 antibody.
Peptide binding capacity to the HLA-A2 molecule was measured by using the T2 cell line according to a protocol described previously (Peters et al., Bioinformatics 19(14):1765-1772, 2003). T2 cells (3×10^5 cells/well) were incubated overnight in 96-well plates with culture medium (1:1 mixture of RPMI 1640/Eagle-Hank's amino acid containing 2.5% fetal bovine serum, 100 U/ml penicillin, and 100 μg/ml streptomycin) with 10 μg/ml β2-microglobulin (Sigma) and different titrated concentrations of peptides (starting from 100 μM with 2-fold serial dilution) as shown in the figures to determine the concentration giving a 50% increasing in binding. Cells were washed once with cold HBSS containing 0.1% BSA and incubated for 30 minutes at 4° C. with anti-HLA-A2.1 BB7.2 monoclonal antibody (1:40 dilution from hybridoma supernatant). After washing, cells were stained with FITC-labeled goat anti-mouse immunoglobulin (BD, San Jose, Calif.), and the level of HLA expression was measured by flow cytometry. HLA-A2 expression was quantified as fluorescence index (FI) according to the following formula: FI=[(geometric mean fluorescence intensity with peptide-geometric mean fluorescence intensity without peptide)/geometric mean fluorescence intensity without peptide]. Background fluorescence without BB7.2 was subtracted for each individual value. To compare the different peptides, FI0.5, the peptide concentration that increases HLA-A2.1 expression by 50% over no peptide control background, was calculated from the titration curve for each peptide.

[1] = test system: C1R.AAD cells pulsed with peptide; experiment: 4-hour 51Cr release CTL assay after one week in vitro stimulation; format: cell-based, human; settings: CTLs from immunized AAD mice, restimulated 7 days with 1.0 μM peptide; targets pulsed with 1.0 μM peptide
Procedure: FIGS. 3A and 3B are graphs showing immunogenicity of the wild type and enhanced POTE 252 epitopes in AAD mice. AAD mice were immunized subcutaneously with a mixture of peptide and cytokines in adjuvant as described in Example 1. (FIG. 3A) Two weeks after the second boost, splenocytes pooled from three mice were restimulated with splenocytes of naïve AAD mice pulsed with 1.0 μM of each peptide at different effector to target (E/T) ratios. Cells were cultured in anti-mouse IFN-γ antibody coated ELISPOT™ plates. After overnight culture, biotinylated anti-mouse IFN-γ antibodies were added to each well. ELISPOT™ substrates were added to develop the color and spots were counted by an ELISPOT™ reader (AID ELISPOT™ reader system). Figures show numbers of spots per million cells. (FIG. 3B) CTL cross-reactivity on each peptide. Two weeks after the second boost, pooled spleen cells from three mice were restimulated with irradiated splenocytes pulsed with 1.0 μM of peptide for 7 days. In a 4-hour ^51Cr release assay, CIR.AAD cells were pulsed with 1.0 μM of peptide and labeled with ^51Cr. After washing three times, target cells were mixed with different numbers of effector cells and then cultured for 4 hours before harvesting.
FIGS. 4A-4D are graphs showing immunogenicity of the wild type and enhanced POTE 553 epitopes in AAD mice. AAD mice were immunized subcutaneously with a mixture of peptide and cytokines in adjuvant. (FIGS. 4A and 4B) Two weeks after the second boost, splenocytes pooled from three mice were restimulated with splenocytes of naïve AAD mice pulsed with 10 nM to 1.0 μM of each peptide at different E/T ratios. Cells were cultured in anti-mouse IFN-γ antibody coated ELISPOT™ plates. After overnight culture, biotinylated anti-mouse IFN-γ antibodies were added to each well. ELISPOT™ substrates were added to develop color and spots were counted by an ELISPOT™ reader (AID ELISPOT™ reader system). Figures show numbers of spots per million cells. (FIGS. 4C and 4D) CTL cross-reactivity on each peptide. Two weeks after the second boost, pooled spleen cells from three mice were restimulated with irradiated splenocytes pulsed with 1.0 μM of peptide for 7 days. In a 4-hour ^51Cr release assay, CIR.AAD cells were pulsed with 1.0 μM of peptide and labeled with ^51Cr. After washing three times, target cells were mixed with different numbers of effector cells and then cultured for 4 hours before harvesting.
FIGS. 5A and 5B are graphs showing immunogenicity of the POTE 272 epitope in AAD mice. AAD mice were immunized subcutaneously with a mixture of peptide and cytokines in adjuvant. (FIG. 5A) Two weeks after the second boost, splenocytes pooled from three mice were restimulated with splenocytes of naïve AAD mice pulsed with 1.0 μM POTE 272 peptide at different E/T ratios. Cells were cultured in anti-mouse IFN-γ antibody coated ELISPOT™ plates. After overnight culture, biotinylated anti-mouse IFN-γ antibodies were added in each well. ELISPOT™ substrates were added to develop color and spots were counted by an ELISPOT™ reader (AID ELISPOT™ reader system). Figures show numbers of spots per million cells. (FIG. 5B) CTL reactivity on POTE 272 peptide. Two weeks after the second boost, pooled spleen cells from three mice were restimulated with irradiated splenocytes pulsed with 1.0 μM POTE 272 peptide for 7 days. In a 4-hour ^51Cr release assay, CIR.AAD cells were pulsed with 1.0 μM POTE 272 peptide and labeled with ^51Cr. After washing three times, target cells were mixed with different numbers of effector cells and then cultured for 4 hours before harvesting.
FIGS. 6A and 6B are graphs showing immunogenicity of the wild type and enhanced POTE 323 epitopes in AAD mice. AAD mice were immunized subcutaneously with a mixture of peptide and cytokines in adjuvant. (FIG. 6A) Two weeks after the second boost, splenocytes pooled from three mice were restimulated with splenocytes of naïve AAD mice pulsed with 1.0 μM of each peptide at different E/T ratios. […]

- binding affinity for the HLA-A2 molecule (in words) (HLA-A2 molecule; T2 binding assay): intermediate binders
- FI0.5 (HLA-A2 molecule; substituted peptides and their wild types, Table 2 / FIGS. 2A-2C): 1.5 µM
- FI0.5 (HLA-A2 molecule; wild-type peptides, Table 1 / FIG. 1): ~1.6 µM
Sequence: KLMAKALLL [POTE 252-260, unmodified 9-mer peptide, residues 252-260 of human POTE]
- CTL lysis of peptide-pulsed target cells [1]: lysed target cells pulsed with the wild-type POTE 252 as well as POTE 252-9V
